Tests used:
Experiment in all cases: cell-based or functional assay
[1] = target: T1, Pd.Ste2, Ste2-like mating GPCR of Pseudogymnoascus destructans (Pseudogymnoascus destructans)
T1 chain: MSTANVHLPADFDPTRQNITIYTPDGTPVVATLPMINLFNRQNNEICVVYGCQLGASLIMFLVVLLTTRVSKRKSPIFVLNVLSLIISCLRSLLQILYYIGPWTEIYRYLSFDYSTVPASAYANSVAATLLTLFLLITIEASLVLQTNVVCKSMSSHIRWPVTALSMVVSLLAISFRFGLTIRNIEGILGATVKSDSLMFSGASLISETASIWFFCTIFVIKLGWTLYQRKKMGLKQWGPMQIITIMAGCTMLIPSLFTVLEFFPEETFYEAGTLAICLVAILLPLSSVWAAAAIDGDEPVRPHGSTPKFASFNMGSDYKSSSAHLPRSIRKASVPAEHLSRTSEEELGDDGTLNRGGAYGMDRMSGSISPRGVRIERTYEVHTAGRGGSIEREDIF

[2] = target: T2, Sca.Ste2, Ste2-like mating GPCR, code Sca (Saccharomyces castellii (Table 3 prints …))
T2 chain: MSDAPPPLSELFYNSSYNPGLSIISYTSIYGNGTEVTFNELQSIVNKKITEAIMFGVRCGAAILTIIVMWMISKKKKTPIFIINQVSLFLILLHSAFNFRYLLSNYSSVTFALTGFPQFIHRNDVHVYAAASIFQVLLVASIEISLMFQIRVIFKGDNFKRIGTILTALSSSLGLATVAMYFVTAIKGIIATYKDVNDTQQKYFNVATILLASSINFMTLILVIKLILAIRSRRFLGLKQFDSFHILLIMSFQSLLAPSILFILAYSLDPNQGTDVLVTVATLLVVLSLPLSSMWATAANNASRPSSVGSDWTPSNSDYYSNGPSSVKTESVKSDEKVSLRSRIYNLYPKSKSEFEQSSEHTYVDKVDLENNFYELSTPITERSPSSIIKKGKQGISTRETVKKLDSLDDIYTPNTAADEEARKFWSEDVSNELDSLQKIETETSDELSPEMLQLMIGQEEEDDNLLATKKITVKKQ

[3] = target: T3, Sj.Ste2, Ste2-like mating GPCR of Schizosaccharomyces japonicus (Schizosaccharomyces japonicus)
T3 chain: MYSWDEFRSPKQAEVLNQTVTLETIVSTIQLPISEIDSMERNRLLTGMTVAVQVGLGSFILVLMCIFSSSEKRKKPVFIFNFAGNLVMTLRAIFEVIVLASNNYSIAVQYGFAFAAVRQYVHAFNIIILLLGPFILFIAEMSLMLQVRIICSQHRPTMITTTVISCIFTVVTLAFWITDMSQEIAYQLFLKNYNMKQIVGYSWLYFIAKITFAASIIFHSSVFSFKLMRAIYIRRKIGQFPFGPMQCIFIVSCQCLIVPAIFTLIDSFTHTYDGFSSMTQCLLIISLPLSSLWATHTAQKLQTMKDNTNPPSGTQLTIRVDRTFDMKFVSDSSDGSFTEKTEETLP

[4] = target: T4, So.Ste2, Ste2-like mating GPCR of Schizosaccharomyces octosporus (Schizosaccharomyces octosporus)
T4 chain: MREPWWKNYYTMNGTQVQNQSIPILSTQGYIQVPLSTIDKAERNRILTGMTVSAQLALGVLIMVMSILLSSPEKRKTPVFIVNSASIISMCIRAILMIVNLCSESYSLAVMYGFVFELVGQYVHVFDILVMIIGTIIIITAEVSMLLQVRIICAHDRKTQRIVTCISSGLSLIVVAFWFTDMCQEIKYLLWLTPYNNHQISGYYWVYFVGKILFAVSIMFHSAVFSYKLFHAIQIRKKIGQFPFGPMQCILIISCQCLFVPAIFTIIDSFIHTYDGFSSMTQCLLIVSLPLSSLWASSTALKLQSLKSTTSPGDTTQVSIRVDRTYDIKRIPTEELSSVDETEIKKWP

[5] = target: T5, Sp.Ste2, Ste2-like mating GPCR of Schizosaccharomyces pombe (Schizosaccharomyces pombe, UniProt Q00619 1-348)
T5 sequence: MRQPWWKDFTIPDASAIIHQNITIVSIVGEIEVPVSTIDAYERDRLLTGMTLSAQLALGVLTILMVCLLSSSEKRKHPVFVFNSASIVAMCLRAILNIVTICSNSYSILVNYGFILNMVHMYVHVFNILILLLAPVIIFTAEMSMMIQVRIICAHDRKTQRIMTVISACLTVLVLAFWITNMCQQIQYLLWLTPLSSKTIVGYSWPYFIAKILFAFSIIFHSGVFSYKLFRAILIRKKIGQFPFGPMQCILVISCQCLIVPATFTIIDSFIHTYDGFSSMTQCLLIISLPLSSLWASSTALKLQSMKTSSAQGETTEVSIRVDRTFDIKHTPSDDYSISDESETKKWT

[6] = target: T6, Pr.Ste2, Ste2-like mating GPCR of Penicillium chrysogenum (Penicillium chrysogenum)
T6 chain: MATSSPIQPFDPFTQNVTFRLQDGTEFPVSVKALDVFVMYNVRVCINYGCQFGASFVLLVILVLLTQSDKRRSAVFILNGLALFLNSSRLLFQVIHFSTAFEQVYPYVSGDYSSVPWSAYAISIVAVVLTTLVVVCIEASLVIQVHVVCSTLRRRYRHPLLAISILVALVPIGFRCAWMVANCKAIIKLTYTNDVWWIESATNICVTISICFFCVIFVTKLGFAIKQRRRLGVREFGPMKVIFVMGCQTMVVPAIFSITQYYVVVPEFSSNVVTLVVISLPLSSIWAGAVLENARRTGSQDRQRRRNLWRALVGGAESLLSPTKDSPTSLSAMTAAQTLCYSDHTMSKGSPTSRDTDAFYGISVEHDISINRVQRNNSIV

[7] = target: T7, Ss.Ste2, Ste2-like mating GPCR of Scheffersomyces stipitis (Scheffersomyces stipitis)
T7 chain: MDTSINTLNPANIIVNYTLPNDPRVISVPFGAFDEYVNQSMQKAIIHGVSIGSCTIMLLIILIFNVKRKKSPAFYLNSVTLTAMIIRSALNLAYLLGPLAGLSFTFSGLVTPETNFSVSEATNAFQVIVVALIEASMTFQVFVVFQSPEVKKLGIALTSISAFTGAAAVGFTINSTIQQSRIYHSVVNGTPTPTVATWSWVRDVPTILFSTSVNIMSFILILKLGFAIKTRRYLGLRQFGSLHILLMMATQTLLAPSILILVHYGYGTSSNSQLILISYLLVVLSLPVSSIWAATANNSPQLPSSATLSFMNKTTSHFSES

[8] = target: T8, Bm.Ste2, Ste2-like mating GPCR of Baudoinia compniacensis (Baudoinia compniacensis)
T8 chain: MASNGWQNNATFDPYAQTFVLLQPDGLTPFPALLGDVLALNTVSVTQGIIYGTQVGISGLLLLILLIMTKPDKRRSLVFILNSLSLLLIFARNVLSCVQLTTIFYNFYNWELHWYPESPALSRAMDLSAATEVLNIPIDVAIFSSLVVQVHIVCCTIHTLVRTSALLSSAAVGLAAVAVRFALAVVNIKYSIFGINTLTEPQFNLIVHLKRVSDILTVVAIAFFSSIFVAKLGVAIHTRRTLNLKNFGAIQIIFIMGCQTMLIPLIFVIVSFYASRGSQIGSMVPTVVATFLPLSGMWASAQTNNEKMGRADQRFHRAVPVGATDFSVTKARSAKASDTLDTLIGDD

[9] = target: T9, Nc.Ste2, Ste2-like mating GPCR of Neurospora crassa (Neurospora crassa)
T9 chain: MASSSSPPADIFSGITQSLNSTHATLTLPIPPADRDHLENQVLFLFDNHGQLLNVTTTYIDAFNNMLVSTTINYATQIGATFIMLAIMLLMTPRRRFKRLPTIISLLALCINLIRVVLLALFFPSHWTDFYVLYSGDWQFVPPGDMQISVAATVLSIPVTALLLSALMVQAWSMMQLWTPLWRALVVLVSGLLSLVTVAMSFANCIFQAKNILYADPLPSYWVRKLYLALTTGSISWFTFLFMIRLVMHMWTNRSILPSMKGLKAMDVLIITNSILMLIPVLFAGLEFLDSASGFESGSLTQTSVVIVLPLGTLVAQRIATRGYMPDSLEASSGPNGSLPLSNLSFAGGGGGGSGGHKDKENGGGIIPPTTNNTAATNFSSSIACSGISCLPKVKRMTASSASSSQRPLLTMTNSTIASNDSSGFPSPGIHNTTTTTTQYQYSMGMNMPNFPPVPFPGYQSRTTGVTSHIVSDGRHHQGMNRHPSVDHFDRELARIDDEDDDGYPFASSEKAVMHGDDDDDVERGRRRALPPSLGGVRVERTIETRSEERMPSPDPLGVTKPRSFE

Binder: FCWRPGQPCG [Pd peptide ligand #1 FCWRPGQPCG]
- Bttm (FUS1p-RFP reporter) [1]: 28.8 fluorescence/A600 (not printed)
- EC50 (FUS1p-RFP reporter) [1]: -7.7 log10 M (not printed)
- Fold Change (FUS1p-RFP reporter) [1]: 6.6 fold
- Span (FUS1p-RFP reporter) [1]: 161 fluorescence/A600 (not printed)
- Top (FUS1p-RFP reporter) [1]: 190 fluorescence/A600 (not printed)

Binder: NWHWLRLDPGQPLY [Sca peptide ligand #1 NWHWLRLDPGQPLY]
- Bttm (FUS1p-RFP reporter) [2]: 24.3 fluorescence/A600 (not printed)
- EC50 (FUS1p-RFP reporter) [2]: -8.1 log10 M (not printed)
- Fold Change (FUS1p-RFP reporter) [2]: 6.4 fold
- Span (FUS1p-RFP reporter) [2]: 131 fluorescence/A600 (not printed)
- Top (FUS1p-RFP reporter) [2]: 155 fluorescence/A600 (not printed)

Binder: VSDRVKQMLSHWWNFRNPDTANL [Sj peptide ligand #1 VSDRVKQMLSHWWNFRNPDTANL]
- Bttm (FUS1p-RFP reporter) [3]: 21.2 fluorescence/A600 (not printed)
- EC50 (FUS1p-RFP reporter) [3]: -7.8 log10 M (not printed)
- Fold Change (FUS1p-RFP reporter) [3]: 14.7 fold
- Span (FUS1p-RFP reporter) [3]: 290 fluorescence/A600 (not printed)
- Top (FUS1p-RFP reporter) [3]: 311 fluorescence/A600 (not printed)

Binder: TYEDFLRVYKNWWSFQNPDRPDL [So peptide ligand #1 TYEDFLRVYKNWWSFQNPDRPDL]
- Bttm (FUS1p-RFP reporter) [4]: 23.7 fluorescence/A600 (not printed)
- EC50 (FUS1p-RFP reporter) [4]: -7.8 log10 M (not printed)
- Fold Change (FUS1p-RFP reporter) [4]: 11.1 fold
- Span (FUS1p-RFP reporter) [4]: 240 fluorescence/A600 (not printed)
- Top (FUS1p-RFP reporter) [4]: 263 fluorescence/A600 (not printed)

Binder: TYADFLRAYQSWNTFVNPDRPNL [Sp peptide ligand #1 TYADFLRAYQSWNTFVNPDRPNL]
- Bttm (FUS1p-RFP reporter) [5]: 29.6 fluorescence/A600 (not printed)
- EC50 (FUS1p-RFP reporter) [5]: -6.2 log10 M (not printed)
- Fold Change (FUS1p-RFP reporter) [5]: 7.6 fold
- Span (FUS1p-RFP reporter) [5]: 195 fluorescence/A600 (not printed)
- Top (FUS1p-RFP reporter) [5]: 224 fluorescence/A600 (not printed)

Binder: WCGHIGQGC [Pr peptide ligand #1 WCGHIGQGC]
- Bttm (FUS1p-RFP reporter) [6]: 27.9 fluorescence/A600 (not printed)
- EC50 (FUS1p-RFP reporter) [6]: -5.8 log10 M (not printed)
- Fold Change (FUS1p-RFP reporter) [6]: 7.4 fold
- Span (FUS1p-RFP reporter) [6]: 179 fluorescence/A600 (not printed)
- Top (FUS1p-RFP reporter) [6]: 207 fluorescence/A600 (not printed)

Binder: WHWTSYGVFEPG [Ss peptide ligand #1 WHWTSYGVFEPG]
- Bttm (FUS1p-RFP reporter) [7]: 23 fluorescence/A600 (not printed)
- EC50 (FUS1p-RFP reporter) [7]: -7.9 log10 M (not printed)
- Fold Change (FUS1p-RFP reporter) [7]: 13.8 fold
- Span (FUS1p-RFP reporter) [7]: 295 fluorescence/A600 (not printed)
- Top (FUS1p-RFP reporter) [7]: 318 fluorescence/A600 (not printed)

Binder: GWIGRCGVPGSSC [Bm peptide ligand #1 GWIGRCGVPGSSC]
- Bttm (FUS1p-RFP reporter) [8]: 30.3 fluorescence/A600 (not printed)
- EC50 (FUS1p-RFP reporter) [8]: -6.7 log10 M (not printed)
- Fold Change (FUS1p-RFP reporter) [8]: 5.2 fold
- Span (FUS1p-RFP reporter) [8]: 128 fluorescence/A600 (not printed)
- Top (FUS1p-RFP reporter) [8]: 159 fluorescence/A600 (not printed)

Binder: QWCRIHGQSCW [Nc peptide ligand #1 QWCRIHGQSCW]
- Bttm (FUS1p-RFP reporter) [9]: 27.6 fluorescence/A600 (not printed)
- EC50 (FUS1p-RFP reporter) [9]: -6.3 log10 M (not printed)
- Fold Change (FUS1p-RFP reporter) [9]: 10.4 fold
- Span (FUS1p-RFP reporter) [9]: 259 fluorescence/A600 (not printed)
- Top (FUS1p-RFP reporter) [9]: 287 fluorescence/A600 (not printed)
